# Measured values from article PMC2174254.
# Where two headings read alike, the source gives them in different places.
# Key:
# Experiment in all cases: cross-linking
# [1] = target: PDI deletion mutant Δ252–277 (S. cerevisiae) (UniProt P17967)
# [2] = target: PDI deletion mutant Δ222–302 (S. cerevisiae) (UniProt P17967)
# [3] = target: PDI deletion mutant Δ222–302 (S. cerevisiae) (UniProt P17967); remark: listed apart in the source
# [4] = target: Protein disulfide isomerase (PDI), wild type, S. cerevisiae (S. cerevisiae) (UniProt P17967)
# [5] = target: BiP, heavy chain binding protein (S. cerevisiae (endogenous in yeast microsomes)) (UniProt P16474)
# BiP, heavy chain binding protein (S. cerevisiae (endogenous in yeast microsomes)), sequence (P16474 43-682): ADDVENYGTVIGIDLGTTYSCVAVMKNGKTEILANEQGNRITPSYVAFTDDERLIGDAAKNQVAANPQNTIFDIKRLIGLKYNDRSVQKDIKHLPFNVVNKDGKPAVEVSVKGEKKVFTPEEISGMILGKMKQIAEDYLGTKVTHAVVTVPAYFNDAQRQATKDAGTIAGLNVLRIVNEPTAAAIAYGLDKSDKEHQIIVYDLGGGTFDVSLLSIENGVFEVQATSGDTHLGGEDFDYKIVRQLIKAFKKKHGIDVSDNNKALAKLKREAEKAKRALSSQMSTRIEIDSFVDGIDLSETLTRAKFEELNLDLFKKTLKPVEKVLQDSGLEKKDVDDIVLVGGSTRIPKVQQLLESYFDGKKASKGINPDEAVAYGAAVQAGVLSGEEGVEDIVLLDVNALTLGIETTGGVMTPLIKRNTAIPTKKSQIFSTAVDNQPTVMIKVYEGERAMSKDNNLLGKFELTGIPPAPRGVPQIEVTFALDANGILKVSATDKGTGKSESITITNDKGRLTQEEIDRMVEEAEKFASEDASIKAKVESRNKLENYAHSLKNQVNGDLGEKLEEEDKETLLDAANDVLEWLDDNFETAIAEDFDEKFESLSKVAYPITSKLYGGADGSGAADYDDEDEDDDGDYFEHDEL
substance,measurement,setting,value
"N-benzoyl-NYT-amide, synthetic glycosylation acceptor peptide","peptide binding, percent of wild-type (% of wild-type)",[1],38
same,"peptide binding, percent of wild-type (% of wild-type)",[2],14
same,"peptide binding, percent of wild-type (% of wild-type)",[3],13
"Δgpαf, mutant glycosylation site-free pro-α factor (natural protein)",percent of the Δgpαf in the sample cross-linked to PDI,[4],7%
same,stoichiometry N,[4],1
same,fold lower affinity than wild-type PDI,[1],9 fold
same,"intensity of the cross-linking product, percent of wild-type (% of wild-type)",[1],24
same,percent of the Δgpαf in the sample cross-linked to BiP,[5],10%
same,Δgpαf bound to BiP in sec61-32 microsomes relative to wild-type microsomes,[5],2.1 fold
same,Δgpαf bound to BiP in sec61-41 microsomes relative to wild-type microsomes,[5],1.3 fold
same,fold lower affinity than wild-type PDI,[2],5 fold
same,"intensity of the cross-linking product, percent of wild-type (% of wild-type)",[2],43
"gpαf, glycopro-α factor (wild type) (natural protein)",fold lower intensity of the cross-linking product than that with Δgpαf,[4],8 fold
